Laboratory results: publication PMC3086059

Target: Mua fused to the T18 or T25 fragment of adenylate cyclase (BACTH) (Helicobacter pylori)
Experiment: two-hybrid
Settings: scale: Miller units per mg of bacterial dry weight

“Mua fused to the T18 or T25 fragment of adenylate cyclase (BACTH) (natural protein)” was tested, and the beta-galactosidase activity was 1920 to 2980.
